40 sequences from the nanobody polyreactivity screen of Harvey et al. (2022) can be followed below.

The series can be described thus: yeast display, Sf9 membrane polyspecificity reagent, FACS + sequencing; frameworks hold sequencing errors. In outline: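 Synthetic nanobody libraries on Saccharomyces cerevisiae BJ5465 were galactose-induced for 36–48 hours, stained 1 hour at 4 °C with 10% biotinylated, detergent-solubilized Sf9 membrane reagent and enriched on streptavidin microbeads. FACS then separated cells into low and high (top ~1%) gates by anti-HA (expression) and streptavidin (reagent binding) fluorescence. Genes were colony-PCR amplified, MiSeq 2 × 250 sequenced and CDR-length filtered. A clone's polyreactivity label is that of its gate of origin.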
Take “QVQLVESGGGLVQAGGSLRLSCAASGFIFRRNAMGWYRQAPGKERELVAAIRQRGDSTYYADSVKGRFTISRDNAKNTVYLQMNSLKPEDTAVYYCATDHAYFHPEYDYWGQGTQVTVSS”: the “polyreactivity (PSR sort gate)” value was “low polyreactivity”.

For the sequence “QVQLVESGGGLVQAGGSLRISCAASGRIFYYNAMGWYRQAPGKERELVAAITSGGSTNYADSVKGRFTISRDNAKNTVYLQMNSLKPEDTAVYYCAADYYYYVAGVHYDYWGQGTQVTVSS”, the “polyreactivity (PSR sort gate)” value is recorded as “low polyreactivity”.

With “QVQLVESGGGLVQAGGSLRLSCASSGRIFYPNAMGWYRQAPGIERELVAAISSRGGSTYYADSVKGRFTISRDNAKNTVYLQMNSLKPEDTAVYYCNRVYYTIGYDYWGQGTQVSVSS”, the “polyreactivity (PSR sort gate)” value is given as “high polyreactivity”.

“QVQLVESGGGLVQAGGSLRLSCAASGRTLGVYAMGWYRPAPGKERELVATITAGGSITSYADSVKGRFTISRDNAKNTVYLQMNSLKPEDTAVYYCAADVPGNYRKYRYGRASSHDYWGQGTQVTVSS”: the “polyreactivity (PSR sort gate)” value is on record as “low polyreactivity”.

On to “QVHLVESGGGLVQAGGSLRLSCAASGITFRFNAMGLSRQAPGKEMEFVAAITYSGDSTYYADSLKVRFTISRDNAKNSVYLHLKSVKPEDTAVYYCAAEYYAISRRIFYYWGQGTQVTVSS”, for which the “polyreactivity (PSR sort gate)” value was “low polyreactivity”.

For “QVQLVESGGGLVQAGGSLRLSCAASGRIFYHNTMGWYRQAPGKERELVAAIRSGSSSYYADSVKGRFTISRDNAKNTVYLQMNSLKPEDTAVYYCNARPWYSWGVDYDYWGQGTQVTVSS”, the “polyreactivity (PSR sort gate)” value was “low polyreactivity”.

Consider “QVQLVESGGGLVQAGGSLRLSCAASGSIMGWYRQAPGKERELVAAISRGGSTYYADSVKGRFTISRDNAKNTVYLQMNSLKPEDTAVYYCAAKTGGSRSRFEYWGQGTQVTVSS”, for which the “polyreactivity (PSR sort gate)” value is reported as “high polyreactivity”.

Consider “QVQLQESGGRLVQAGVSLRLSCAASGSIYDDTYMGWYRQAPGKERELVATIDSGSTTNYADSVKGRITISRDNAKNTVYLQMNSLKPEDTAVYYCAAADSHIDYFDYWGQGTQVTVSS”, for which the “polyreactivity (PSR sort gate)” value is on record as “low polyreactivity”.

In the case of “QVQLVESGGGLVQAGGSLRKSCAASGSTFVDYDMGWYRQAPGKERELVAGITTGGSTNYADSVKGRFPISRDNAKNTVYLQMNSLKPEDTAVYYCNADSYPILVPDYLYYWYEYWGQGTQVTVSS”, the “polyreactivity (PSR sort gate)” value was “low polyreactivity”.

As to “QVQLVESGGGLVQAGGSLRLSCAASGFIFDGYTMGWYRQAPGKERELVAAISRSGGRTYYADSVKGRFTISRDNAKNTVYLQMNSLKPEDTAVYYCAVRYRQYSQTVASDYGYWGQGTQVTLSS”, the “polyreactivity (PSR sort gate)” value is recorded as “high polyreactivity”.

Turning to “QVQLVESGGGLVQAGGSLRLSCAASGITFSSYVMGWYRQAPGKERELDAAISRSGGITYYADSVKGRFTISRDNAKNTVYLQMNSLKPEDTAVYYCAVRYYIYRPGGYDYWGQGTQVTVSS”, the “polyreactivity (PSR sort gate)” value is reported as “high polyreactivity”.

“QVQLVESGGGLVQAGGSLRLSCAASGRIFPVYAMVSYRQAPGKERELVAAISKRDGSTSYADSVKGRFTISRDNAKNTVYLQMHSLKPEDTAVYYCNVLGYGSSYDYWGQGTQVTVSS”: the “polyreactivity (PSR sort gate)” value is on record as “low polyreactivity”.

Turning to “QVQLVESGGGLVQAGGSLRLSCAASGSTFRRYAMGWYRQAPGKERELVAAITSTDVNTYYADSVKGRFTISRDNAKNTVYLQMNSLKPEDTAVYYCAAVYLGYYGVSDMEYWGQGTQVTVSS”, the “polyreactivity (PSR sort gate)” value is on record as “high polyreactivity”.

Turning to “QVQLVESGGGLVQAGGSLRLSCAASGRTFGANVMGWYRQAPGKERELVARISNGGRTSYADSVKARFTISRDNAKNPVYLQMNSLKPEDTAVYYCAALVVNVFPRYGYWGQGTQVTVSS”, the “polyreactivity (PSR sort gate)” value was “high polyreactivity”.

Turning to “QVQLVESGGGLVQAGGSLRLSCAACGFTFWDYAMGWYSQAPGKERELVAAISDNDGSTDYADSVKGRFTISRDNAKNTVYLQMNSLKPEDSAVYYCNAEIELPSKEGDYWGQGTQVTVSS”, the “polyreactivity (PSR sort gate)” value is recorded as “low polyreactivity”.

For “QVQLVESGGGLVQAGGSLRLSCAASGRIFKWYAMGWYRQAPGKVRELVAAISARGGRTYYADSVKGRFTISRDNAKNTVYLQMNSLKPEDTAVYYCATDYVKSDAYKYYYWGQGTQVTVSS”, the “polyreactivity (PSR sort gate)” value is on record as “high polyreactivity”.

For “QVQLVESGGGLVQARGSLRLSCAASGSIFYGNTMGWYRQAPGKESEFVAAISYGGGGTYYADSVKGRFTISRDNAKNTVYLQMNILKPEDTAVYYCATDDPLYQINEQGMDYWGLGTQVTVSS”, the “polyreactivity (PSR sort gate)” value is listed as “low polyreactivity”.

Turning to “QVQLVESGGGLVQAGGSLRLSCAASGRIFGGYAMGWYRQAPGKERELVAAISSSGGRTYYADSVKGRFTISRDNSKKTVYLQMNSLKPEDTAVYYCNAGAGQRVSGHSFEDWGQGTQVTVSS”, the “polyreactivity (PSR sort gate)” value was “high polyreactivity”.

With “QVQLVESGGGLVQAGGSLRLSCAASGFTFYHYAMGWYRQAPGKERELVATISKRGGSTYYADSVKGRFTISRDNAKNTVYLQMNSLKPEDTAVYYCAAKIYWSSLKMDYWGQGTQVTVSS”, the “polyreactivity (PSR sort gate)” value is on record as “high polyreactivity”.

Take “QVQLVESGGGLVQAGGSLRLTCAASGSTFWDNTMGWYRQAPGKDRELVAGITGGGNTKYADSVKGRFTISRDNAKNTVYLQMNSLKPEDTAVYYCAAERLRGYRGVRGYYGYYYWGQGTQVTVSS”: the “polyreactivity (PSR sort gate)” value is “high polyreactivity”.

With “QVQLVESGGGLVQAGGSLRLSCAASGRTFTEYAMGWYRQAPGKEREFVARIRWSDGSTYYADSVKGRFTISRDNAKNTVYLQMNSLLPEDTAVYYCAARYIETPVTVLSLMDYWGQGTQVTVSS”, the “polyreactivity (PSR sort gate)” value is recorded as “low polyreactivity”.

Regarding “QVQLVESGGGLVQAGGSLRLSCAASGSILYYYVMGWYRQAPGKERELVAAITSGGSTYYADSVKGRFTISRDNAKYTVYFQMIILKPEDTAVFYCAVGYVLTGVFQARFDYWGQGTQVNVSS”, the “polyreactivity (PSR sort gate)” value is “high polyreactivity”.

With “QVQLVESGGGLVQAGGSLRLSCAASGSTFPYYALGWSRQAPGKEREFVATISSSGGSTYYADSVKGRFTISRDNAKNTVYLQMNSLKPEDTAVYYCAARYQTSGFRYRYGYWGQGTQVTVSS”, the “polyreactivity (PSR sort gate)” value is “high polyreactivity”.

On to “QVQLVESGGGLVQAGGSLRLSCAASGRTFGDNAMGWYRQARGKERELVAAISSGDSTYYADSVKGRFTISRDNAKNSVYLQMNSLKPEDTAVYYCAARWRYTFYVSYYYWGQGTQVTVSS”, for which the “polyreactivity (PSR sort gate)” value is “high polyreactivity”.

“QVQLVASGGGLVQAGGSLRLSFAASGRNFAYNTMGWYRQAPGKERELVAAITWSGGGKYYADSVKGRFTISRDNAKNTVYLHMNSLKPEDTAVYYCAVVYASPRARYRYYYWGQGTQVTVSS”: the “polyreactivity (PSR sort gate)” value is recorded as “low polyreactivity”.

Turning to “LVQLVESGGRLVQAGGSLRLSCAASGRTFPAYTMGWYRQSPGKERDLVAANYSSGGTTYYADSVKGRFTISRDNAKNTVYLQIYSINPEDNAVYYCNAYLGYYYYYLDALIGYDYWGQGTQVTVSS”, the “polyreactivity (PSR sort gate)” value is on record as “low polyreactivity”.

With “QVQLVESGGGLVQAGGSLRFSCAASGFTFYEYAMGWYRQAPGKERELVAAINWNGGRTYYADSVKGRFTISRDNAKNTVYLQMNSLKPEDTAVYYCAARVAPKTKISRRYYWGQGTQVNVSS”, the “polyreactivity (PSR sort gate)” value is given as “high polyreactivity”.

As to “QVQLQESGGGLVQAGGSLRLSCAASGYISLAQTIGWFRQAPGKEREFVASIALGSSTYYTDSVKGSFTISRDNAKTTVYLQMNSLKPDDTAVYYCAARVGASYAHDYWGQGTQVTVSS”, the “polyreactivity (PSR sort gate)” value is on record as “low polyreactivity”.

Turning to “QVQLVESGGGLVQAGGSLRLSCAASGFTFYSYAMGWYRQAPGKEREFVAAISGSGTITFYADSVKGRFTISRDNAKNTVYLQMNSLKPEDTAVYYCNADKYYRWSSPRYDYWGQGTQVTVSS”, the “polyreactivity (PSR sort gate)” value was “low polyreactivity”.

Regarding “QVQLVESGGGLVQAGGSLSLSCAASGSIFPYYAMGWYRQAPGKESELVAAISRGGGTTYYADSVKGRFTISRDNAKNSVYLQMNSLKPEDTAVYSGAARRWGEYDYWGQGTQVTVSS”, the “polyreactivity (PSR sort gate)” value was “high polyreactivity”.

Consider “QVQLVESGGGLVQAGGSLRLSCASSGSTFGPYTMGWYTQAPGKERELVATISSGGSTYYADSVKGRFTISRDNAKYTVYLQMKSLKPEDTAVYYCAARYWSIYDYWGQGTQVTVSS”, for which the “polyreactivity (PSR sort gate)” value is “low polyreactivity”.

Take “QVQLVESGGGLVQAGGSLRLSCAASGRTDVAKGMGRYRQAPGKEKEMVAAINDGDVTYYADSVKGRFTISRDNAKNTVYLQMNSLKPEDTAVYYCAADIIYGYEVYTYTSDYWGQGTQVTVSS”: the “polyreactivity (PSR sort gate)” value is on record as “low polyreactivity”.

In the case of “QVQLVESGGGLVQAGGSLRLSCAASGFIFPRNVMGWYRQAPGKERELVAAISRSGGSTYYADSVKGRFTISRDNAKNTVYLQMNSLTPEDTAVYYCAKRPAYYYFVYQVPIGYDYWGQGTQVTVSS”, the “polyreactivity (PSR sort gate)” value is on record as “high polyreactivity”.

“QVQLVESAGGLVQAGGSLRLSSAASAFTFYSNAMGWYRHAPGKEREFVAAGSTYYADSVKGRFTISRDNAKNTVYLQMNSLKPEDTAVYYCAADSYDVSRRYEYEYWGEGTQVTVSS”: the “polyreactivity (PSR sort gate)” value was “low polyreactivity”.

Consider “QVQLVESGGGLVQAGGSLRLSCAAYGFIFTRYAMGWSRQAPGKERELVAAISSSGGSTSYADSVKGRFTISRDNAKNTVYFQMNSLKPEDTAVYYCAARGYRLARYRSYDYWGQGTQVTVSS”, for which the “polyreactivity (PSR sort gate)” value is listed as “high polyreactivity”.

Regarding “QVQLVESGGGLVQAGGSLRLSCAASGSTSGSYGMGWYRQAPGKERELVAAIRWSGGRTYYADSVKGRFTISRDNAKNTVYLQMNSLKPEDTAVYYCAKYRYTVAGYNYWGQGTQVTVSS”, the “polyreactivity (PSR sort gate)” value is “high polyreactivity”.

For the sequence “QVQLVESGGGLVQAGGSLSISCAASGRTFYAYAMGWYRQAPGTERELVASIDKSGGSTYYADSVKGRFTISRRIRRYRLFTDEQPETGRYRCLLLRCWCVVLSDFQFWGDFDYDYWGQGTQVTVSS”, the “polyreactivity (PSR sort gate)” value is on record as “low polyreactivity”.

For the sequence “QVQLVESGGGLVQAGGSLRLSCAASGRTFYANTMGWYRQAPGKERELVAAITVRGGTTFYADSVKGRFTISRDNAKNTVYLQMNSLKPEDTAVYYCAAYGYRYSHEYYYWGQGTQVTVSS”, the “polyreactivity (PSR sort gate)” value is reported as “high polyreactivity”.

As to “QVQLVESGGGLVQAGGSLRLSCAASGIIFRGNAMGWYRQAPRKEREFVAAISLRGSRTYYADSVKGRFTISRDNAKNTVYLQMNSLKPEDTAVYYCNARGGPSPFGSDYWGQGTQVTVSS”, the “polyreactivity (PSR sort gate)” value was “high polyreactivity”.

As for “QVQRVESGGGLVQAGGSLRLSCGASGSTFWAYVMGWYRPAPGKERELVAAMSSGGTTNYADSVKGRFTISRDNAKNTVYLQMNSLKPEDTAVYYCAAGRPGELDYWGQGTQVTVSS”, the “polyreactivity (PSR sort gate)” value is listed as “low polyreactivity”.
